# Results from patent US20180066015A1, “INHIBITORS OF GROWTH FACTOR ACTIVATION ENZYMES” (Washington University, published 2018).
# Starred links: 1 amine or outer side, 2 acyl side, 3 side chain; linkers in the order of their positions; H or OH if unused. Non-standard residues stand in square brackets, D forms with d. No end group written: not given here. *: point of attachment. Kbt‑6‑CONH = ketobenzothiazole-6-CONH (amide link to Val), O=C(c1ccc2nc([*:1])sc2c1)[*:2]; kbt = C-terminal ketobenzothiazole, c1ccc2sc(*)nc2c1; His(π-Bom) = N[C@@H](Cc1cncn1COCc1ccccc1)C(=O)O; Fmoc = O=C(OCC1c2ccccc2-c2ccccc21)*; cmk = not defined here
# B1: Fmoc-YR-kbt (peptide)
# peptide: Fmoc-Tyr-Arg-kbt
# B2: H-dWFR-kbt-COOH (peptide)
# peptide: H-[dW]-Phe-Arg-{kbt-OH}
# B3: H-WLR-kbt-COOH (peptide)
# peptide: H-Trp-Leu-Arg-{kbt-OH}
# B4: H-dWLR-kbt-COOH (peptide)
# peptide: H-[dW]-Leu-Arg-{kbt-OH}
# B5: Fmoc-IR-kbt (peptide)
# peptide: Fmoc-Ile-Arg-kbt
# B6: H-WFR-kbt (peptide)
# peptide: H-Trp-Phe-Arg-kbt
# B7: H-His(Bom)-WLR-kbt (peptide)
# peptide: H-[His(π-Bom)]WLR-kbt
# SMILES: CC(C)C[C@H](NC(=O)[C@H](Cc1c[nH]c2ccccc12)NC(=O)[C@@H](N)Cc1cncn1COCc1ccccc1)C(=O)N[C@@H](CCCNC(=N)N)C(=O)c1nc2ccccc2s1
# B8: Fmoc-KR-kbt (peptide)
# peptide: Fmoc-Lys-Arg-kbt
# B9: Cy5.5-KRLR(SEQ ID NO: 8)-kbt (peptide)
# peptide: {Cy5.5}-KRLR-kbt
# B10: Fmoc-HR-kbt (peptide)
# peptide: Fmoc-His-Arg-kbt
# B11: Fmoc-QR-kbt (peptide)
# peptide: Fmoc-Gln-Arg-kbt
# B12: H-dWLR-kbt (peptide)
# peptide: H-[dW]-Leu-Arg-kbt
# B13: Fmoc-PR-kbt (peptide)
# peptide: Fmoc-Pro-Arg-kbt
# B14: Ac-WLFR(SEQ ID NO: 20)-Kbt (peptide)
# peptide: Ac-WLFR-kbt
# SMILES: CC(=O)N[C@@H](Cc1c[nH]c2ccccc12)C(=O)N[C@@H](CC(C)C)C(=O)N[C@@H](Cc1ccccc1)C(=O)N[C@@H](CCCNC(=N)N)C(=O)c1nc2ccccc2s1
# B15: Ac-KRLR(SEQ ID NO: 8)-kbt-Benzyl-3-COOH (peptide)
# peptide: Ac-KRLR
# modifications: not fully specified (C-terminus); also: benzyl COOH at 3 or 4 (tables differ)
# B16: Fmoc-DR-kbt (peptide)
# peptide: Fmoc-Asp-Arg-kbt
# B17: Fmoc-WR-kbt (peptide)
# peptide: Fmoc-Trp-Arg-kbt
# B18: Fmoc-SR-kbt (peptide)
# peptide: Fmoc-Ser-Arg-kbt
# B19: H-His(Bom)-dWLR-kbt (peptide)
# peptide: H-[His(π-Bom)][dW]LR-kbt
# SMILES: CC(C)C[C@H](NC(=O)[C@@H](Cc1c[nH]c2ccccc12)NC(=O)[C@@H](N)Cc1cncn1COCc1ccccc1)C(=O)N[C@@H](CCCNC(=N)N)C(=O)c1nc2ccccc2s1
# B20: Fmoc-RR-kbt (peptide)
# peptide: Fmoc-Arg-Arg-kbt
# B21: Fmoc-AR-kbt (peptide)
# peptide: Fmoc-Ala-Arg-kbt
# B22: Ac-KRLR(SEQ ID NO: 8)-Kbt-Val-NH2 (peptide)
# peptide: Ac-KRLR-{Kbt‑6‑CONH-Val-NH2}
# B23: Fmoc-NR-kbt (peptide)
# peptide: Fmoc-Asn-Arg-kbt
# B24: Fmoc-VR-kbt (peptide)
# peptide: Fmoc-Val-Arg-kbt
# B25: Fmoc-GR-kbt (peptide)
# peptide: Fmoc-Gly-Arg-kbt
# B26: Cy5.5-KRLR(SEQ ID NO: 8)-cmk (peptide)
# peptide: {Cy5.5}-KRLR-cmk
# modifications: reading uncertain
# B27: Fmoc-TR-kbt (peptide)
# peptide: Fmoc-Thr-Arg-kbt
# B28: Fmoc-ER-kbt (peptide)
# peptide: Fmoc-Glu-Arg-kbt
# B29: H-dWFR-kbt (peptide)
# peptide: H-[dW]-Phe-Arg-kbt
# B30: Fmoc-MR-kbt (peptide)
# peptide: Fmoc-Met-Arg-kbt
# Target: Hepatocyte Growth Factor Activator (HGFA) serine protease domain, N-terminal His-tag, recombinant (Homo sapiens (Human)) (UniProt Q04756)
# Test: not given
row,Molecule,IC50 of enzyme inhibition
1,Ac-WKLdR-kt (peptide),6500 nM
2,Ac-KQLdR-kt (peptide),5530 nM
3,Ac-SHLdR-kt (peptide),21200 nM
4,H-KQLdR-kt (peptide),11300 nM
5,Ac-SKLdR-kt (peptide),6310 nM
6,Ac-WQLdR-kt (peptide),7120 nM
7,Ac-SRLdR-kt (peptide),2240 nM
8,Ac-KHLdR-kt (peptide),10900 nM
9,H-KQLR(SEQ ID NO: 1)-Kt (peptide),440 nM
10,Ac-KQFdR-kt (peptide),7820 nM
11,Ac-SdRLdR-kt (peptide),11900 nM
12,Ac-SdRLR-kt (peptide),1420 nM
13,Ac-SKFdR-kt (peptide),10800 nM
14,Ac-RQLdR-kt (peptide),3120 nM

# Target: Hepatocyte Growth Factor Activator (HGFA) serine protease domain, N-terminal His-tag, recombinant (Homo sapiens (Human)) (UniProt Q04756)
# Test: fluorogenic inhibition assay
row,Molecule,Ki
1,B1,2960 nM
2,B2,981 nM
3,B3,1380 nM
4,B4,346 nM
5,B5,6470 nM
6,B6,5680 nM
7,B7,3710 nM
8,B8,> 20000 nM
9,B9,608 nM
10,B10,6360 nM
11,B11,6830 nM
12,B12,128 nM
13,B13,> 20000 nM
14,B14,133 nM
15,B15,3.33 nM
16,B16,> 20000 nM
17,B17,3200 nM
18,B18,> 20000 nM
19,B19,2280 nM
20,B20,8630 nM
21,B21,7980 nM
22,B22,5.83 nM
23,B23,> 20000 nM
24,B24,4630 nM
25,B25,9380 nM
26,B26,34.1 nM
27,B27,> 20000 nM
28,B28,> 20000 nM
29,B29,2250 nM

# Target: Factor Xa
# Test: selectivity inhibition assay
row,Molecule,Ki
1,B14,1 nM
2,B22,17 nM

# Target: recombinant thrombin
# Test: selectivity inhibition assay
row,Molecule,Ki
1,B14,> 20000 nM
2,B15,1620 nM
3,B22,1560 nM

# Target: T1, matriptase (Charles Craik, UCSF), recombinant (Homo sapiens (Human), UniProt Q9Y5Y6)
# T1 sequence: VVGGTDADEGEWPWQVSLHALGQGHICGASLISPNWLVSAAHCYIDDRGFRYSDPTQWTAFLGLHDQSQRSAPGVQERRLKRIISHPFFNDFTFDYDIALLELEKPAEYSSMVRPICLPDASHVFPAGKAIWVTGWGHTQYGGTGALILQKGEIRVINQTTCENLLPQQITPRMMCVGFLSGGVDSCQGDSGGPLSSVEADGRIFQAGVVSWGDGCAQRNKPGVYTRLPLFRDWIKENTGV
# Test: fluorogenic inhibition assay
# Method: (§1) Inhibitors (11-pt serial dilutions, 0-20 μM final concentration in reaction) were serially diluted in DMSO (2% DMSO final concentration) and then mixed with either recombinant serine protease domain of HGFA [Z. Han, P. K. Harris, D. E. Jones, R. Chugani, T. Kim, M. Agarwal, W. Shen, S. A. Wildman, J. W. Janetka, Acs Med Chem Lett 2014, 5, 1219-1224], matriptase (Charles Craik, UCSF) or hepsin* (#4776-SE-010, R&D Systems, Minneapolis, Minn.) in black 384 well plates (Corning #3575. Corning, N.Y.). […] The final substrate concentrations for all assays were at the Kₘ for the respective enzymes. Changes in fluorescence (excitation at 380 nm and emission at 460 nm) were measured at room temperature over time in a Biotek Synergy 2 plate reader (Winnoski, Vt.). Using GraphPad Prism version 6.04 software program, (GraphPad Software, San Diego, Calif., www.graphpad.com), a four parameter curve fit was used to determine the inhibitor IC₅₀s from a plot of the mean reaction velocity versus the inhibitor concentration. The IC₅₀ values represent the average of three separate experimental determinations.
# (§2) Fluorescent inhibitor and chromogenic proteolytic assays were performed in general accordance with the procedures described in Example 4 for compounds prepared in Examples 5 and 6.
row,Molecule,Ki
1,B1,332 nM
2,B2,232 nM
3,B5,657 nM
4,B30,62.1 nM
5,B7,1550 nM
6,B8,0.2 nM
7,B9,87.5 nM
8,B10,66.7 nM
9,B11,1.6 nM
10,B13,40.4 nM
11,B14,5.96 nM
12,B15,3.6 nM
13,B16,398 nM
14,B17,824 nM
15,B18,90 nM
16,B19,1500 nM
17,B20,2 nM
18,B21,0.5 nM
19,B22,7.42 nM
20,B23,84.1 nM
21,B24,1490 nM
22,B25,0.1 nM
23,B26,172 nM
24,B27,1220 nM
25,B28,8.4 nM

# Target: Recombinant human hepsin (4776-SE-010, R&D Systems), activated (human, UniProt P05981)
# Test: fluorogenic inhibition assay
# Method: as §1, §2
row,Molecule,Ki
1,B1,217 nM
2,B2,1.41 nM
3,B3,446 nM
4,B4,136 nM
5,B5,297 nM
6,B6,240 nM
7,B30,490 nM
8,B7,2.08 nM
9,B8,159 nM
10,B9,3.89 nM
11,B10,268 nM
12,B11,170 nM
13,B12,3.58 nM
14,B13,776 nM
15,B14,0.347 nM
16,B15,0.3 nM
17,B16,233 nM
18,B17,411 nM
19,B18,886 nM
20,B19,1.13 nM
21,B20,99.9 nM
22,B21,272 nM
23,B22,0.227 nM
24,B23,1.92 nM
25,B24,314 nM
26,B25,831 nM
27,B26,324 nM
28,B27,437 nM
29,B28,338 nM
30,B29,370 nM
